T1: Anaplastic Lymphoma kinase Artificial Substrate peptide-A (ALAStide-A)
T1 chain: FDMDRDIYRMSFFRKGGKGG

T2: Anaplastic Lymphoma kinase Artificial Substrate peptide-B (ALAStide-B)
T2 chain: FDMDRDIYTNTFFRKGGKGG

T3: YFF peptide
T3 chain: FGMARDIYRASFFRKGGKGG

B1: Csk (protein)
chain: MSAIQAAWPSGTECIAKYNFHGTAEQDLPFCKGDVLTIVAVTKDPNWYKAKNKVGREGIIPANYVQKREGVKAGTKLSLMPWFHGKITREQAERLLYPPETGLFLVRESTNYPGDYTLCVSCDGKVEHYRIMYHASKLSIDEEVYFENLMQLVEHYTSDADGLCTRLIKPKVMEGTVAAQDEFYRSGWALNMKELKLLQTIGKGEFGDVMLGDYRGNKVAVKCIKNDATAQAFLAEASVMTQLRHSNLVQLLGVIVEEKGGLYIVTEYMAKGSLVDYLRSRGRSVLGGDCLLKFSLDVCEAMEYLEGNNFVHRDLAARNVLVSEDNVAKVSDFGLTKEASSTQDTGKLPVKWTAPEALREKKFSTKSDVWSFGILLWEIYSFGRVPYPRIPLKDVVPRVEKGYKMDAPDGCPPAVYEVMKNCWHLDAAMRPSFLQLREQLEHIKTHELHL
B2: Anaplastic lymphoma kinase (ALK) (protein)
chain: VYRRKHQELQAMQMELQSPEYKLSKLRTSTIMTDYNPNYCFAGKTSSISDLKEVPRKNITLIRGLGHGAFGEVYEGQVSGMPNDPSPLQVAVKTLPEVCSEQDELDFLMEALIISKFNHQNIVRCIGVSLQSLPRFILLELMAGGDLKSFLRETRPRPSQPSSLAMLDLLHVARDIACGCQYLEENHFIHRDIAARNCLLTCPGPGRVAKIGDFGMARDIYRASYYRKGGCAMLPVKWMPPEAFMEGIFTSKTDTWSFGVLLWEIFSLGYMPYPSKSNQEVLEFVTSGGRMDPPKNCPGPVYRIMTQCWQHQPEDRPNFAIILERIEYCTQDPDVINTALPIEYGPLVEEEEKVPVRPKDPEGVPPLLVSQQAKREEERSPAAPPPLPTTSSGKAAKKPTAAEISVRVPRGPAVEGGHVNMAFSQSNPPSELHKVHGSRNKPTSLWNPTYGSWFTEKPTKKNNPIAKKEPHDRGNLGLEGSCTVPPNVATGRLPGASLLLEPSSLTANMKEVPLFRLRHFPCGNVNYGYQQQGLPLEAATAPGAGHYEDTILKSKNSMNQPGP
B3: Lyn (protein)
chain: MGCIKSKGKDSLSDDGVDLKTQPVRNTERTIYVRDPTSNKQQRPVPESQLLPGQRFQTKDPEEQGDIVVALYPYDGIHPDDLSFKKGEKMKVLEEHGEWWKAKSLLTKKEGFIPSNYVAKLNTLETEEWFFKDITRKDAERQLLAPGNSAGAFLIRESETLKGSFSLSVRDFDPVHGDVIKHYKIRSLDNGGYYISPRITFPCISDMIKHYQKQADGLCRRLEKACISPKPQKPWDKDAWEIPRESIKLVKRLGAGQFGEVWMGYYNNSTKVAVKTLKPGTMSVQAFLEEANLMKTLQHDKLVRLYAVVTREEPIYIITEYMAKGSLLDFLKSDEGGKVLLPKLIDFSAQIAEGMAYIERKNYIHRDLRAANVLVSESLMCKIADFGLARVIEDNEYTAREGAKFPIKWTAPEAINFGCFTIKSDVWSFGILLYEIVTYGKIPYPGRTNADVMTALSQGYRMPRVENCPDELYDIMKMCWKEKAEERPTFDYLQSVLDDFYTATEGQYQQQP

Assays:
[1] = target: T1, Anaplastic Lymphoma kinase Artificial …
[2] = target: T2, Anaplastic Lymphoma kinase Artificial …
[3] = target: T3, YFF peptide

| Protein | phosphorylation by kinase in vitro, ELISA [1] | phosphorylation by kinase in vitro, ELISA [2] | phosphorylation by kinase in vitro, ELISA [3] | phosphorylation by ALK kinase in vitro, ELISA [1] | phosphorylation by ALK kinase in vitro, ELISA [2] | phosphorylation by ALK kinase in vitro, ELISA [3] |
| --- | --- | --- | --- | --- | --- | --- |
| B1 | The ALK-specific biosensors are not phosphorylated by other representative cellular kinases | The ALK-specific biosensors are not phosphorylated by other representative cellular kinases | shows the lack of affinity of these the two ALK-specific biosensors and YFF peptide by Lyn, Abl, and Csk | – | – | – |
| B2 | – | – | – | ALAStide-A has higher phosphorylation activity than YFF and ALAStide-B | ALAStide-B has comparable phosphorylation level with YFF peptide | YFF peptide is used as a reference to compare the phosphorylation activity of ALAStide-A and ALAStide-B |
| B3 | The ALK-specific biosensors are not phosphorylated by other representative cellular kinases | The ALK-specific biosensors are not phosphorylated by other representative cellular kinases | shows the lack of affinity of these the two ALK-specific biosensors and YFF peptide by Lyn, Abl, and Csk | – | – | – |

From patent US20170183710
